These results are taken from paper PMC2121028.

The assay deals with SNF1/GAL4(1-147). Kind of assay: two-hybrid. To be noted: scale: units.
SNF1/GAL4(1-147), sequence (P06782 whole entry, the tested form may be a part): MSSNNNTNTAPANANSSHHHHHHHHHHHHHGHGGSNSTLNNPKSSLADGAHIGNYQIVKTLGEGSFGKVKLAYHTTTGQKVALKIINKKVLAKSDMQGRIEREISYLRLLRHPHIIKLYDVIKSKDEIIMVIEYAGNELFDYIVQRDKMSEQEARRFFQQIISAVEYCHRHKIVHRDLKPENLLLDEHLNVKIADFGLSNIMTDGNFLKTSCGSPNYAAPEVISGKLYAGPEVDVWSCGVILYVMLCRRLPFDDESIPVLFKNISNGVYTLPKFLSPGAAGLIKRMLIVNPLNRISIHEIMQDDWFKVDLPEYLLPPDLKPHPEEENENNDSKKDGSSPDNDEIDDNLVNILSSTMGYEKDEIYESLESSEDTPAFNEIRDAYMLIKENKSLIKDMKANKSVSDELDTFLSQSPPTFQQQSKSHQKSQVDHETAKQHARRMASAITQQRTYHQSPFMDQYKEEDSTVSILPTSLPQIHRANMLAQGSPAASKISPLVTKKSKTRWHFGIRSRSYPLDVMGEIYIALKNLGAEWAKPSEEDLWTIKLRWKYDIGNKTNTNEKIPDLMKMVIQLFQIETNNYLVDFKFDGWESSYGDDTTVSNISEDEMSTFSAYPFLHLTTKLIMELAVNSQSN

SNF4/GAL4(768-881) (natural protein), sequence (P12904 whole entry, the tested form may be a part): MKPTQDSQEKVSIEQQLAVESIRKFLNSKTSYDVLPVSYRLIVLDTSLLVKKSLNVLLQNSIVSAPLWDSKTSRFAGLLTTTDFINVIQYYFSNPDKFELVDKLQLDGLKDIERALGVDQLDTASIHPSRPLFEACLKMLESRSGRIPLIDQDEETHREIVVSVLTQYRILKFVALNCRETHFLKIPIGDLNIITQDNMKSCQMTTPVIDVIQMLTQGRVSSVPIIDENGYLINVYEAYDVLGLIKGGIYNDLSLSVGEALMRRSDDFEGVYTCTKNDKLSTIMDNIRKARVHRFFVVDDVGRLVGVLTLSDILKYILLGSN

For the substance SNF4/GAL4(768-881) (natural protein), the beta-galactosidase activity was found to be 500.
